Substitutions are numbered along the chain they refer to.
T1: CD24 on tumor cells (MCF7, SKOV3, HT55, huCD24-MDA-MB-231, CD24-SKOV3) (human, UniProt P25063 27-59)
T1 construct: whole, on cells; The cell line of each result is named under assay
T1 chain (looked up): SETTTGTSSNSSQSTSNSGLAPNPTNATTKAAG

T2: human CD24 protein (ACRO) (human, UniProt P25063 27-59)
T2 construct: also called analyte human CD24 protein
T2 chain (looked up): T1 chain (looked up)

B1: chimeric antibody CH-01 (antibody, human IgG1, kappa, V domains shown)
VH: QIQLVQSGPELKKPGETVKISCKASGYIFTDYAIHWVKQAPGKGLKWMGFINTATGEPTYADDFKGRFAFSLETSASTAYLQVNSLKNEDTATYFCTSGVHWGQGTTLTVSS
VL: QIVLTQSPAIMSASLGEEITLTCSASSSVSSMHWYQQKSGTSPKLLIYSTSNLASGVPSRFSGSGSGTFYSLTISSVESEDAADYYCHHWTSYMYTFGGGTKLEIKR
notes: ms-01 variable regions on a human IgG framework, expressed in CHO cells
B2: murine anti-CD24 antibody ms-01 (antibody, V domains shown)
VH: B1 VH
VL: QIVLTQSPAIMSASLGEEITLTCSASSSVSSMHWYQQKSGTSPKLLIYSTSNLASGVPSRFSGSGSGTFYSLTISSVESEDAADYYCHHWTSYMYTFGGGTKLEIK
notes: Mouse antibody from a hybridoma
B3: humanized antibody hu-01-L2H3 (antibody, human IgG1, kappa, V domains shown)
VH: QVQLVQSGSELKKPGASVKVSCKASGYIFTDYAIHWVKQAPGQGLEWMGFINTATGEPTYADDFKGRFVFSLDTSVSTAYLQISSLKAEDTAVYFCTSGVHWGQGTLVTVSS
VL: DIQMTQSPSTLSASVGDRVTITCSASSSVSSMHWYQQKPGKAPKLLIYSTSNLASGVPSRFSGSGSGTEYTLTISSLQPDDFATYYCHHWTSYMYTFGGGTKVEIKR
notes: Humanized from ms-01: light chain L2, heavy chain H3
B4: humanized antibody hu-01-L1H3 (antibody, human IgG1, kappa, V domains shown)
VH: B3 VH
VL: B3 VL with Y70F
notes: Humanized from ms-01: light chain L1, heavy chain H3
B5: humanized antibody hu-01-L2H2 (antibody, human IgG1, kappa, V domains shown)
VH: B3 VH with K38R
VL: B3 VL
notes: Humanized from ms-01: light chain L2, heavy chain H2
B6: humanized antibody hu-01-L1H2 (antibody, human IgG1, kappa, V domains shown)
VH: B3 VH with K38R
VL: B3 VL with Y70F
notes: Humanized from ms-01: light chain L1, heavy chain H2
B7: humanized antibody hu-01-L2H4 (antibody, human IgG1, kappa, V domains shown)
VH: B3 VH with E46K
VL: B3 VL
notes: Humanized from ms-01: light chain L2, heavy chain H4
B8: humanized antibody hu-01-L3H3 (antibody, human IgG1, kappa, V domains shown)
VH: B3 VH
VL: B3 VL with M4L, A42S
notes: Humanized from ms-01: light chain L3, heavy chain H3
B9: humanized antibody hu-01-L3H4 (antibody, human IgG1, kappa, V domains shown)
VH: B3 VH with E46K
VL: B3 VL with M4L, A42S
notes: Humanized from ms-01: light chain L3, heavy chain H4
B10: humanized antibody hu-01-L1H4 (antibody, human IgG1, kappa, V domains shown)
VH: B3 VH with E46K
VL: B3 VL with Y70F
notes: Humanized from ms-01: light chain L1, heavy chain H4
B11: humanized antibody hu-01-L2H1 (antibody, human IgG1, kappa, V domains shown)
VH: B3 VH with K38R, F95Y, T97A, S98R
VL: B3 VL
notes: Humanized from ms-01: light chain L2, heavy chain H1
B12: humanized antibody hu-01-L3H2 (antibody, human IgG1, kappa, V domains shown)
VH: B3 VH with K38R
VL: B3 VL with M4L, A42S
notes: Humanized from ms-01: light chain L3, heavy chain H2
B13: chimeric antibody CH-02 (antibody, human IgG1, kappa, V domains shown)
VH: EVQLQESGPDLVKPSQSLSLTCTVTGYSITSGYTWHWIRQFPGNKLEWMGHIQYTGNTKYNPSLESRISITRETSKNQFFLQLNSVTTEDTGTYYCARGSTNSNDYWGQGTSVTVSS
VL: DIVMTQSPSSLAVSVGEKVTVSCKSSQSLLYSNDQKNYLAWYQQKPGQSPKLLIYWASTRESGVPDRFTGSGSGTDFTLTITSVKAEDLAVYYCQQYFIYPLTFGAGTKLELKR
notes: ms-02 variable regions on a human IgG framework, expressed in CHO cells
B14: hu-02-L1H8 (antibody, human IgG1, kappa, V domains shown)
VH: EVQLQESGPGLVKPSQTLSLTCTVSGYSITSGYTWHWIRQFPGNKLEWMGHIQYTGNTKYNPSLESRITISRDTSKNQFSLKLSSVTAADTATYYCARGSTNSNDYWGQGTLVTVSS
VL: DIVMTQSPDSLAVSLGERATINCKSSQSLLYSNDQKNYLAWYQQKPGQPPKLLIYWASTRESGVPDRFSGSGSGTDFTLTISSLQAEDVAVYYCQQYFIYPLTFGGGTKLELKR
notes: also called humanized antibody hu-02-L1H8
B15: humanized antibody hu-02-L1H7 (antibody, human IgG1, kappa, V domains shown)
VH: B14 VH with M49I
VL: B14 VL
notes: Humanized from ms-02: light chain L1, heavy chain H7
B16: humanized antibody hu-02-L1H1 (antibody, human IgG1, kappa, V domains shown)
VH: B14 VH with E1Q, F41H, N44K, K45G, M49I, I68V, R72V, T93V
VL: B14 VL
notes: Humanized from ms-02: light chain L1, heavy chain H1

Tests used:
[1] = biological target: CD24 on tumor cells (MCF7, SKOV3, HT55, huCD24-MDA-MB-231, CD24-SKOV3) (human) (UniProt P25063); test: flow cytometry on SKOV3 cells (MFI)
[2] = biological target: CD24 on tumor cells (MCF7, SKOV3, HT55, huCD24-MDA-MB-231, CD24-SKOV3) (human) (UniProt P25063); test: flow cytometry on MCF7 cells (MFI); fit value given for a flat control curve; unit inferred, unit from the x axis label
[3] = biological target: CD24 on tumor cells (MCF7, SKOV3, HT55, huCD24-MDA-MB-231, CD24-SKOV3) (human) (UniProt P25063); test: flow cytometry on SKOV3 cells (MFI); fit value given for a flat control curve; unit inferred, unit from the x axis label
[4] = biological target: CD24 on tumor cells (MCF7, SKOV3, HT55, huCD24-MDA-MB-231, CD24-SKOV3) (human) (UniProt P25063); test: flow cytometry on huCD24-MDA-MB-231 cells (MFI); fit value given for a flat control curve; unit inferred, unit from the x axis label
[5] = biological target: T1, CD24 on tumor cells (MCF7, SKOV3, HT55, …); test: flow cytometry on MCF7 cells (MFI); table under the graph prints no unit, unit from the x axis label
Protocol: (§1) The commercial antibody SN3 (ABCOM; ab134375) and IgG1 isotype control were used as control. MCF7, SKOV3, HT55 or huCD24-MDA-MB-231 cells were taken and transferred to a centrifuge tube, and centrifuged at 1000 rpm for 5 min. 100 μL of MCF7, SKOV3, HT55, or huCD24-MDA-MB-231 cells were spread in a 96 U plate, respectively, and washed twice with PBS. 100 μL of the fusion supernatant was added, and diluted for 8 gradients. Cells were incubated at 4° C. for 60 minutes, and then washed twice with excess FACS buffer. Cells were resuspended in 100 μL of FACS buffer and sheep anti-mouse secondary antibody-FITC (ABCOM; ab6785) was added to the samples, incubated for 30 minutes and washed twice with excess FACS buffer. Cells were fixed in fixation buffer and subsequently analyzed by flow cytometry.
(§2) The binding activity of the chimeric antibodies CH-01 and CH-02 and tumor cells was detected according to the method of Example 6.

[6] = biological target: T1, CD24 on tumor cells (MCF7, SKOV3, HT55, …); test: flow cytometry on SKOV3 cells (MFI); table under the graph prints no unit, unit from the x axis label
Protocol: as §1, §2

[7] = biological target: T2, human CD24 protein (ACRO); test: BLI (ForteBio Octet RED96e), antibody immobilised, human CD24 protein as analyte
Protocol: ForteBio […] (BLI) was used to detect the affinity of humanized antibodies. The sample to be tested (solidified) was diluted to 20 μg/mL with 0.02% PBST (buffer). The analyte human CD24 protein (ACRO) was diluted to 100 nM with 0.02% PBST (buffer) as the initial concentration, and then diluted by double gradient for 7 gradients starting from this concentration, and a negative control (buffer) was performed.
The molecular interaction analysis instrument (ForteBio; Octet RED96e) was operated, and 200 μL of curing buffer (0.02% PBST) was added to a pre-wetted plate, and the sensor was pre-wetted for 5-10 min. Diluted samples and other reagents for assay were added into wells in the sample plate corresponding to the pre-wetted sensor.

[8] = biological target: T1, CD24 on tumor cells (MCF7, SKOV3, HT55, …); test: flow cytometry on MCF7 cells (MFI)
Protocol: as §1

[9] = biological target: T1, CD24 on tumor cells (MCF7, SKOV3, HT55, …); test: flow cytometry on huCD24-MDA-MB-231 cells (MFI); table under the graph prints no unit, unit from the x axis label
[10] = biological target: T1, CD24 on tumor cells (MCF7, SKOV3, HT55, …); test: flow cytometry on MCF7 cells (MFI)

Molecule	Kd [7] [nM]	also measured
commercial antibody SN3 (ABCOM; ab134375)		EC50 (read off the curve) [1]: 2 µg/mL
IgG1 isotype control (antibody)		EC50 [2]: 0.142 µg/mL; EC50 [3]: 49.7 µg/mL; EC50 [4]: 3.49 µg/mL
B1	8.08	EC50 [5]: 1.69 µg/mL; EC50 [6]: 1.2 µg/mL
B2		EC50 (read off the curve) [8]: ~2 µg/mL
B3	9.03	
B4	10	
B5	10.5	
B6	5.58	
B7	39.1	
B8	12.4	
B9	41.2	
B10	48.2	
B11		binding result [7]: no binding (tested: 100 nM (highest analyte concentration))
B12	8.29	
B13	11.9	EC50 [9]: 4.03 µg/mL
B14		binding result [10]: binds
B15	20.5	EC50 [9]: 3.42 µg/mL
B16	62.7	EC50 [9]: 2.08 µg/mL
